According to CN117820471A (VAZYME MEDICAL CO LTD; HUNAN NOVAZYME MEDICAL TECH CO LTD, dated 2024):

B1: Rabbit anti-GFAP mAb (antibody, V domains shown)
VH: QSLEESGGRLVTPGGSLTLTCTVSGIDLTTYTMTWVRQAPGKGLEWIGIISGSGTTYYASWAKGRFTISKTSTTVDLKITSPTTEDTATYFCARDLYGSSDIYNIWGPGTLVTVST
VL: DIVMTQTPASVSAAVGGTVTINCQASESIRNYLSWYQQKPGQPPKLLIFDASTLASGVSSRFKGSGSGTEFTLTISDLECADAATYYCQTYYGVSGFGNAFGGGTEVVVK
notes: Rabbit monoclonal antibody developed earlier, used as the fixed capture antibody (coated on the plate or on magnetic beads) in the sandwich assays; also called 包被抗体; 与之配对的抗体
B2: Anti-GFAP-rRmab-1 (antibody, V domains shown)
VH: QSLEESGGRLVTPGTPLTLTCTSSGFSLSSYYIQWVRQAPGKGLEWIGIIYASGSTYYASWAKGRFTISKTSATVDLKITSPTQEDTATYFCARNDYDSNLIMSIWGPGTLVTVSS
VL: AYDMTQTPASMEVAVGGTVTINCQASQNIGSSLAWYQQKPGQRPKLLIYRASTLASGVPSRFSGSGSGTEFTLTISGLQCDDAATYYCQQHFSIGAVQNVFGGGTEVVVR
notes: the rabbit constant regions are not; It was labelled with acridinium ester in the chemiluminescence sandwich assay; also called GFAP特异性抗体; 优选抗体

Experiments:
GFAP-His重组蛋白 [1] = target: T1, GFAP-His重组蛋白 (Homo sapiens (Human), UniProt P14136 1-432); test: fixed capture antibody in the sandwich ELISA that detects GFAP-His
T1 construct: Recombinant GFAP expressed in 293F cells; also called GFAP-His蛋白; Glial fibrillary acidic protein

GFAP-His重组蛋白 [2] = target: T1, GFAP-His重组蛋白; test: chemiluminescence sandwich assay on GFAP-His (Rabbit anti-GFAP mAb on magnetic beads, test antibody labelled with acridinium ester)

T1 sequence (P14136 other isoform, or with tags, fused parts or gaps limits assumed): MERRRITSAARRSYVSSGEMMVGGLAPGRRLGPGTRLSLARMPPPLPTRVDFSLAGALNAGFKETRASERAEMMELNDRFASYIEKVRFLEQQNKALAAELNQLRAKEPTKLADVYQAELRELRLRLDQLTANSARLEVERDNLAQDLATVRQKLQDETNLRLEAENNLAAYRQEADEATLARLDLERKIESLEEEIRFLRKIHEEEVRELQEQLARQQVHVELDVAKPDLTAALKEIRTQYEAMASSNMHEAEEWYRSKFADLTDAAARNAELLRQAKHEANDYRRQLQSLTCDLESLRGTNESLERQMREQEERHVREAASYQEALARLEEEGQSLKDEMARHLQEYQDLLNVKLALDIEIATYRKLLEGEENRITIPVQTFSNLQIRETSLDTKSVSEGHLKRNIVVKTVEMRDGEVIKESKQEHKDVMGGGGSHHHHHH

binding result (GFAP-His重组蛋白 [1]) | binding result (GFAP-His重组蛋白 [2]) | Binder
binds | – | B1
– | binds | B2
